Results reported in PMC11839890 (European Journal of Nuclear Medicine and Molecular Imaging, 2024).
Non-standard residues stand in square brackets, D forms with d. Residues, ends and D or L forms follow the SMILES beside them. *: point of attachment. DOTA = O=C(O)CN1CCN(CC(=O)O)CCN(CC(=O)*)CCN(CC(=O)O)CC1; 1Nal = N[C@@H](Cc1cccc2ccccc12)C(=O)O; NMeNle = CCCC[C@H](NC)C(=O)O

Key:
A431-CCK2R cells = conditions: cited from earlier work; for Bmax: A431-CCK2R cells, nM printed only with the first value of the sentence; for Kd: same cell line (A431-CCK2R), nM printed only with the PP-F11N value
in vivo = conditions: female, BALB/c nude (athymic), mouse, iv, 20 pmol peptide, total radioactivity
Method: Biodistribution studies were performed in female athymic BALB/c nude mice (Charles River Laboratories, Sulzfeld, Germany) with A431-CCK2R xenografts induced and animals treated as described previously. The study was approved by the Austrian Ministry of Science (2022–0.351.553). […] Statistical analysis was performed on the data sets using the unpaired two-tailed t-test with a significance level of 0.05.

[^177Lu]Lu-DOTA-PP-F11: 177Lu-labelled DOTA-(DGlu)6-Ala-Tyr-Gly-Trp-Met-Asp-Phe-NH2 (AYGWMDF; 177Lu-DOTA-(DGlu)6, C-terminal amide; printed: Ala-Tyr-Gly-Trp-Met-Asp-Phe-)
Bmax (A431-CCK2R cells): 0.65 ± 0.06 nM
Kd (A431-CCK2R cells): 41.7 ± 9.7 nM

[^111In]In-DOTA-PP-F11: 111In-labelled DOTA-(DGlu)6-Ala-Tyr-Gly-Trp-Met-Asp-Phe-NH2 (AYGWMDF; 111In-DOTA-(DGlu)6, C-terminal amide; printed: Ala-Tyr-Gly-Trp-Met-Asp-Phe-)
Bmax (A431-CCK2R cells): 1.21 ± 0.06 nM
Kd (A431-CCK2R cells): 15.9 ± 2.2 nM

CSCC[C@H](NC(=O)[C@H](Cc1c[nH]c2ccccc12)NC(=O)CNC(=O)[C@H](Cc1ccc(O)cc1)NC(=O)[C@H](C)NC(=O)[C@@H](CCC(=O)O)NC(=O)CN1CCN(CC(=O)O)CCN(CC(=O)O)CCN(CC(=O)O)CC1)C(=O)N[C@@H](CC(=O)O)C(=O)N[C@@H](Cc1cccc2ccccc12)C(N)=O [[^111In]In-DOTA-[1Nal^8]MG11, metal not drawn] ({DOTA}-[dE]AYGWMD[1Nal]-NH2)
tissue uptake at 4 h (in vivo; kidney uptake): 1.1 ± 0.1 %ID/g
tissue uptake at 4 h (in vivo; stomach uptake): 1.2 ± 0.3 %ID/g
tissue uptake at 4 h (in vivo; tumour uptake): 1.2 ± 0.2 %ID/g

CCCC[C@@H](C(=O)N[C@@H](CC(=O)O)C(=O)N[C@@H](Cc1cccc2ccccc12)C(N)=O)N(C)C(=O)[C@H](Cc1c[nH]c2ccccc12)NC(=O)CNC(=O)[C@H](Cc1ccc(O)cc1)NC(=O)[C@H](C)NC(=O)[C@@H](CCC(=O)O)NC(=O)CN1CCN(CC(=O)O)CCN(CC(=O)O)CCN(CC(=O)O)CC1 [[^111In]In-DOTA-MGS5, metal not drawn]
tissue uptake at 4 h (in vivo; kidney uptake): 3.9 ± 0.5 %ID/g
tissue uptake at 4 h (in vivo; stomach uptake): 8.2 ± 2.4 %ID/g

CCCC[C@@H](C(=O)N[C@@H](CC(=O)O)C(=O)N[C@@H](Cc1ccccc1)C(N)=O)N(C)C(=O)[C@H](Cc1c[nH]c2ccccc12)NC(=O)CNC(=O)[C@H](Cc1ccc(O)cc1)NC(=O)[C@H](C)NC(=O)[C@@H](CCC(=O)O)NC(=O)CN1CCN(CC(=O)O)CCN(CC(=O)O)CCN(CC(=O)O)CC1 [[^111In]In-DOTA-[(N-Me)Nle^6]MG11, metal not drawn] ({DOTA}-[dE]AYGW[NMeNle]DF-NH2)
tissue uptake at 4 h (in vivo; kidney uptake): 3 ± 0.3 %ID/g
tissue uptake at 4 h (in vivo; stomach uptake): 2.9 ± 0.6 %ID/g
tissue uptake at 4 h (in vivo; tumour uptake): 12.3 ± 4.2 %ID/g
